This is an account of results in patent publication EP3366704A1 (Affimed GmbH, dated 2018).

In assay [1] the target is T1, MMP1-003 peptide/HLA-A2 complex (on MMP1-003 peptide-pulsed T2 cells or HLA-A2+/MMP1+ tumor cells) (human). Description: cell-based or functional assay.
Assay [2] deals with T1, MMP1-003 peptide/HLA-A2 complex (on …). Briefly: flow cytometry on MMP1-003 peptide-pulsed T2 cells, mean of two experiments. On the technique in general: In flow cytometry, cells or beads pass a laser one at a time.
For assay [3], the target named is T2, HLA-A2 on non-pulsed T2 cells (no peptide added) (human).
T2 construct: whole, on cells
Briefly: flow cytometry on non-pulsed T2 cells, mean of two experiments.

Assay [4] addresses T1, MMP1-003 peptide/HLA-A2 complex (on …). Briefly: cell-based or functional assay. This is another data set of the same source.
The target of assay [5] is T3, human CD3 (on Jurkat cells or primary human T-cells) (human, UniProt P07766 23-207).
T3 construct: whole, on cells; CD3 is a complex of several chains; also called Human CD3^+ Jurkat; Human CD3^+ primary T-cells
T3 sequence (P07766 23-207): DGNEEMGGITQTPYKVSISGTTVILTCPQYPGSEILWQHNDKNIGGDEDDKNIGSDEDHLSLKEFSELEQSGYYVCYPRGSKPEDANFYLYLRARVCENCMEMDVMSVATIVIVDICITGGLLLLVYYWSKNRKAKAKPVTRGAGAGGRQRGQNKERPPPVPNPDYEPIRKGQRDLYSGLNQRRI
Briefly: flow cytometry on human CD3+ Jurkat cells, on ice, one-site binding fit, mean of 2 experiments.

The target in assay [6] is T1, MMP1-003 peptide/HLA-A2 complex (on …). Description: flow cytometry on MMP1-003 peptide-pulsed T2 cells.
In assay [7] the target is T3, human CD3 (on Jurkat cells or primary …). Description: flow cytometry on human CD3+ primary T-cells, on ice, one-site binding fit, mean of 2 experiments.
For assay [8], the target named is T4, cynomolgus CD3 (on HSC-F cells) (cynomolgus, UniProt Q95LI5 22-198).
T4 construct: whole, on cells; CD3 is a complex of several chains; also called Cyno CD3^+ HSC-F
T4 sequence (Q95LI5 22-198): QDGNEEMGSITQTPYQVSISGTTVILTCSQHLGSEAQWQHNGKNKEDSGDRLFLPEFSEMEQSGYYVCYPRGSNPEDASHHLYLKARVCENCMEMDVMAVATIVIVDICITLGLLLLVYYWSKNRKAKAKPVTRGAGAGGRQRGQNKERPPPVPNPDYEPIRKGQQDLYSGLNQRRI
Description: flow cytometry on cynomolgus CD3+ HSC-F cells, on ice, one-site binding fit, mean of 2 experiments.

A value given as a limit tells only on which side of the number the result lay.

B1: TandAbCD3 2 (anti-HLA-A2^MMP1-003/CD3 tandem diabody, target domain A02) (bispecific antibody)
chain: DIQMTQSPSSLSASVGDRVTITCRSSTGAVTTSNYANWVQQKPGKAPKALIGGTNKRAPGVPSRFSGSLIGDKATLTISSLQPEDFATYYCALWYSNLWVFGQGTKVEIKGGSGGSEVQLVESGGGVVQPGRSLRLSCAASGFTFSSYAMHWVRQAPGKGLEWVAVISYDGSNKYYADSVKGRFTISRDNSKNTLYLQMNSLRTEDTAVYYCARDGGYYHYGLDVWGQGTTVTVSSGGSGSYELTQPPSVSVSPGQTASITCSGDKLGDKYASWYQRKPGQSPVLLIYQDAKRPSGIPERFSGSNSGNTATLTISGTQAMDEADYYCQAWDSSTGVFGGGTKLTVLGGSGGSEVQLVESGGGLVQPGGSLRLSCAASGFTFSTYAMNWVRQAPGKGLEWVGRIRSKYNNYATYYADSVKDRFTISRDDSKNSLYLQMNSLKTEDTAVYYCARHGNFGNSYVSYFAYWGQGTLVTVSSAAAGSHHHHHH
notes: Non-covalent homodimer; C-terminal 6xHis tag; also called TandAbCD3 2 T717; T717
The term Kd denotes the free concentration of one partner at which half of the binding sites on the other are occupied at equilibrium, for simple one-to-one binding. A lower Kd goes with a tighter complex. B1: in assay [1], the “EC50 of target cell lysis, 4 h calcein-release cytotoxicity assay, MMP1-003-pulsed T2 cells, human T-cells E:T 25:1” value is 0.0009 nM. Further, the Kd is 39.2 nM in assay [2]; greater than 500 nM in assay [3]; 3.6 nM in assay [5]; 2.2 nM in assay [7]; 2.8 nM in assay [8]. The “Mean EC50 of target cell lysis, 4 h calcein-release assay, B-CPAP (HLA-A2+/MMP1+), human T-cells E:T 25:1” value in assay [4] is 0.0669 nM. Also, the “Mean EC50 of target cell lysis, 4 h calcein-release assay, SW-982 (HLA-A2+/MMP1+), human T-cells E:T 25:1” value in assay [4] was 0.0302 nM. Further, in assay [6], the “fold higher apparent affinity than the corresponding scFv A02” value is greater than 2 fold.
